Laboratory results from PMC12597760.
Like-named read-outs stand apart in the source and are kept apart here. Blank lines part the entries; values can stand above or below the substance they belong to.

How the values were obtained:
[1] = target: TGF-β2
[2] = target: TGF-β3
[3] = target: TGF-β1
[4] = target: Synagis; assay: SPR
[5] = target: Synagis-T22d35 (UniProt P37173); assay: SPR
[6] = target: TGF-β1; remark: listed apart in the source
Target sequence in this assay (P01137 279-390): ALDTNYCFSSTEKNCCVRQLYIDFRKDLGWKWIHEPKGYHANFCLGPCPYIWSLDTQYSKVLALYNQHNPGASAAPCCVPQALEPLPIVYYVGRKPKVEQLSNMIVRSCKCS

[7] = target: TGF-β1; remark: listed apart in the source
Target sequence in this assay (P01137 279-390): as above

[8] = target: TGF-β2; remark: listed apart in the source
Target sequence in this assay (P61812 303-414): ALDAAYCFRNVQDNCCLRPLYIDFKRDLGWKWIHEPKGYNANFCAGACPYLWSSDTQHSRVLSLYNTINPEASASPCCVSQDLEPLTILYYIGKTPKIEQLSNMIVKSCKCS

Synagis, sequence (heavy, as listed by the source, chain 1 of 2): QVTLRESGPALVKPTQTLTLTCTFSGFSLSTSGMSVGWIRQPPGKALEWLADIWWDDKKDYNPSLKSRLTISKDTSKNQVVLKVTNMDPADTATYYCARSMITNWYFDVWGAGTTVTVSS
Synagis, sequence (light, as listed by the source, chain 2 of 2): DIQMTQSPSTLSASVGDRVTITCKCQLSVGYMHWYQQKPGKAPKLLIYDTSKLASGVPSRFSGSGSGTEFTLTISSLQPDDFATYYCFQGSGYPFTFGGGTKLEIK
RSV-F, sequence (P03420 26-574): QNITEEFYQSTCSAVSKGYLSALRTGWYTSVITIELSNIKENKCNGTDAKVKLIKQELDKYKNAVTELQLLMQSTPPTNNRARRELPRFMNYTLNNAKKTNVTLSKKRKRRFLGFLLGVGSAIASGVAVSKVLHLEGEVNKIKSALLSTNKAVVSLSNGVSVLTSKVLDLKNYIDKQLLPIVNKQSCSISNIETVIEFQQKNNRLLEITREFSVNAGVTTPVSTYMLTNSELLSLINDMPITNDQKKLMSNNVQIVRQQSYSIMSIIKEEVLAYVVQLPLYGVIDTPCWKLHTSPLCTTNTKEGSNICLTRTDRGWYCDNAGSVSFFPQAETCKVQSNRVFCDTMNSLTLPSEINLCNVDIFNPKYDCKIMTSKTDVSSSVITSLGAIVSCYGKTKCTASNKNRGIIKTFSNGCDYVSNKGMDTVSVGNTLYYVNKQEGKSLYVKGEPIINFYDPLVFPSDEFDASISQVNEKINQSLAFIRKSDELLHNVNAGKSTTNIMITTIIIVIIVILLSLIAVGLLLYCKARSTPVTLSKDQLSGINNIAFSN
Avastin-T22d35, sequence (P37173 whole entry, looked up): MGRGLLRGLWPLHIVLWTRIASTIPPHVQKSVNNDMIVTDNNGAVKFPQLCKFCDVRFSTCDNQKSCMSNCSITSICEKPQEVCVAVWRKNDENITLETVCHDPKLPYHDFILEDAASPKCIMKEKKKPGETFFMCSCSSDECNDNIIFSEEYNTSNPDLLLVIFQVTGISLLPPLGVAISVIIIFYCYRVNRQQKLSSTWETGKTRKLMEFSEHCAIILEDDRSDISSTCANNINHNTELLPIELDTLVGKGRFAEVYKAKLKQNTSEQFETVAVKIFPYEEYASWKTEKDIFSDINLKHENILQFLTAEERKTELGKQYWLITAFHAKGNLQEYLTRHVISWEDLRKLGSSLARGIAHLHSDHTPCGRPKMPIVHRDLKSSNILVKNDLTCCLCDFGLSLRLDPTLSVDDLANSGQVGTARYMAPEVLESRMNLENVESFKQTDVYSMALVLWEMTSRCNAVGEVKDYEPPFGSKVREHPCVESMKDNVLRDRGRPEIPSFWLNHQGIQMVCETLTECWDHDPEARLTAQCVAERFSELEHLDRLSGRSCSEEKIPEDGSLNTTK
T22d35-hIgG2Fc(CC)ΔK, sequence (P37173 other isoform, or with tags, fused parts or gaps mutant): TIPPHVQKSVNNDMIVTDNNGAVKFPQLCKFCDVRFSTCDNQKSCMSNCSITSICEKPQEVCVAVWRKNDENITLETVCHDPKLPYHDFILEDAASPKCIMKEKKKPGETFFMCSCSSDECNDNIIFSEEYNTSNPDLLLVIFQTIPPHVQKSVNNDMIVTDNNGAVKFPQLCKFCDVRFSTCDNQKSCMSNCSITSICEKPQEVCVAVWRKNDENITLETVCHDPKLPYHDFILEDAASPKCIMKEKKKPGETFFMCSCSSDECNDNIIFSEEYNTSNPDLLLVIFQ
T22d35 (single-chain fusion of two TGF-β type II receptor ectodomains), sequence (P37173 other isoform, or with tags, fused parts or gaps): as the sequence (P37173 other isoform, or with tags, fused parts or gaps mutant) above
hIgG2Fc(CC)ΔK-T22d35, sequence (P37173 other isoform, or with tags, fused parts or gaps mutant): as above

Substance: Avastin-T22d35 (from UniProt P37173 23-166; P37173 23-166) (antibody)
- IC50 (nM) of neutralization of TGF-β2 (10 pM), A549 IL-11 release assay [1]: 2.99 nM
- IC50 (nM) of neutralization of TGF-β3 (10 pM), A549 IL-11 release assay [2]: 0.00276 nM

Substance: FC5VHH-Fc-T22d35 (from UniProt P37173 23-166; P37173 23-166) (Fc fusion)
- IC50 (nM) of neutralization of TGF-β1 (10 pM), A549 IL-11 release assay [3]: 0.00235 nM

Substance: Herceptin-T22d35 (from UniProt P37173 23-166; P37173 23-166) (antibody)
- IC50 (nM) of neutralization of TGF-β2 (10 pM), A549 IL-11 release assay [1]: 4.35 nM
- IC50 (nM) of neutralization of TGF-β3 (10 pM), A549 IL-11 release assay [2]: 0.00249 nM

Substance: RSV-F (from UniProt P03420 26-574) (natural protein)
- Kd [4]: 6.6 nM
- koff [4]: 0.00168 s⁻¹
- kon [4]: 25700 M⁻¹ s⁻¹
- Kd [5]: 4.1 nM
- koff [5]: 0.00142 s⁻¹
- kon [5]: 35500 M⁻¹ s⁻¹

Substance: T22d35 (single-chain fusion of two TGF-β type II receptor ectodomains) (from UniProt P37173 23-166; P37173 23-166) (domain or fragment)
- IC50 of neutralization of TGF-β1, A549 IL-11 release assay (Figure 2B) [6]: 0.5 nM
- IC50 (nM) of neutralization of TGF-β1 (10 pM), A549 IL-11 release assay [7]: 3.25 nM

Substance: T22d35-hIgG2Fc(CC)ΔK (from UniProt P37173 23-166; P37173 23-166) (Fc fusion)
- IC50 (nM) of neutralization of TGF-β2 (10 pM), A549 IL-11 release assay [8]: 4.76 nM
- IC50 (nM) of neutralization of TGF-β1 (10 pM), A549 IL-11 release assay [7]: 0.00331 nM

Substance: hIgG2Fc(CC)ΔK-T22d35 (from UniProt P37173 23-166; P37173 23-166) (Fc fusion)
- IC50 (nM) of neutralization of TGF-β2 (10 pM), A549 IL-11 release assay [8]: 1.41 nM

The next lines start with the values.

- IC50 (nM) of neutralization of TGF-β3 (10 pM), A549 IL-11 release assay [2]: 0.0332 nM
Substance: Cetuximab-T2m (from UniProt P37173 23-166) (antibody)

- IC50 (nM) of neutralization of TGF-β2 (10 pM), A549 IL-11 release assay [1]: 3.33 nM
- IC50 (nM) of neutralization of TGF-β3 (10 pM), A549 IL-11 release assay [2]: 0.00428 nM
Substance: Cetuximab-T22d35 (from UniProt P37173 23-166; P37173 23-166) (antibody)

- IC50 (nM) of neutralization of TGF-β1 (10 pM), A549 IL-11 release assay [3]: 0.00569 nM
Substance: FC5VHH-Fc-T2m (from UniProt P37173 23-166) (Fc fusion)
